How the values were obtained:
[1] = target: T1, ETV1 immunogenic peptide P1 (human); test: SPR (Biacore T200), antibody amine-coupled on CM5 chip, peptide as analyte, 1:1 binding fit
T1 construct: 27 amino acid peptide, ETV1 residues 212-238; also called immunogen peptide; ETV1 P1 peptide
Protocol: Affinity measurements using SPRi was performed using a Biacore T200 instrument (Cytiva, Marlborough, MA) by Creative Biolabs (Shirley, NY, USA). The ETV1 (29E4) antibody was directly immobilized onto a CM5 sensor chip surface using an amine coupling kit (Cytiva). Before immobilization, the CM5 sensor surface was activated using a mixture of 400 mM 1-ethyl-3-(3-dimethylaminopropyl) carbodiimide (EDC) and 100 mM N-hydroxysuccinimide (NHS). The ETV1 antibody was diluted to 40 μg/ml in immobilization buffer (10 mM NaAc, pH 4.5) and injected into Fc4 sample channel at a flow rate of 10 μL/min. The amount of antibody (ligand) immobilized was about 5,000 RU. The chip was deactivated by 1 M Ethanolamine hydrochloride-NaOH (GE Healthcare Life Sciences, Piscataway, NJ) at a flow rate of 10 μL/min for 420 seconds. The reference Fc3 channel underwent similar procedures but without injecting the ligand. […] Different concentrations of the […] were then injected into the cell over both channels at a flow rate of 30 μL/min, with a contact time of 90 seconds, followed by a dissociation time of 210 seconds. The surface was regenerated with 10 mM Glycine-HCl, pH 1.5 after each injection to prepare for the injection of the next antibody dilution sample. Data analysis was performed on the Biacore T200 computer and with the Biacore T200 evaluation software, using the steady-state affinity model or 1:1 binding model.
The binding of the 29E4 mAb to its epitope sequence was further analyzed by using SPRi. After immobilizing the ETV1 mAb onto a matrix of dextran on the surface of a Sensor Chip to a level of 5000 response units (RU) with standard amine coupling (FIG. 4, panel A), different concentrations of the serially diluted peptide were then injected as an analyte into the cell over both channels for 300 seconds (contact time of 90 seconds, followed by a dissociation time of 210 seconds) to give a response of about 180 RU. The different binding affinity of each antibody dilution is depicted in the overlay plot of SPR sensorgrams and fitting curves (FIG. 4, panel B).

[2] = target: T2, ERG3 (pCMV-ERG3 plasmid, Exons 5-16, NM_001136154) (UniProt P11308-3 40-486); test: immunoblot of cell lysates (HEK-293 2 µg per lane) probed with 29E4; the protein is shown present in panel C
T2 construct: Expressed in HEK-293 cells and tested as cell lysate on an immunoblot; also called ETS Transcription Factor ERG
T2 sequence (looked up): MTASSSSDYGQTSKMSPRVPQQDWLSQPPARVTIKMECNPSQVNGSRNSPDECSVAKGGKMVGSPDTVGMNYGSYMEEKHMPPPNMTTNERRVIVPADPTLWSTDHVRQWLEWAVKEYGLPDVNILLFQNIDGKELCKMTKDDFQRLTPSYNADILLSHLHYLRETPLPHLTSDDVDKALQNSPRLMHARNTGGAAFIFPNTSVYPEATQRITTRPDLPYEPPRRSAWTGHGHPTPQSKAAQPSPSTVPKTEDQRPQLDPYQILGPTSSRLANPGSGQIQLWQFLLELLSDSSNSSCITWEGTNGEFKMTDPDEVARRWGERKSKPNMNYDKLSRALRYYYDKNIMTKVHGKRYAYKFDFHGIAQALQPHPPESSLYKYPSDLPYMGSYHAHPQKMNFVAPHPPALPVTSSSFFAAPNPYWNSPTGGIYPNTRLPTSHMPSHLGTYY
Protocol: (§1) Immunoblots using antibodies against ETV1 (A and H), ETV4 (B), ERG (C), SPDEF (D), FLI1 (E), FLAG (F), and GAPDH (G), as a loading control. […] PC3 cells were transfected with 25 nM non-targeting (NT) siRNA or ETV-1 siRNA oligos (lanes 1 and 2, respectively). […] were infected with either a control vector (lane 10) or adenoviral vector expressing FLI1 (lanes 11).
(§2) Cell lysates were then cleared by centrifugation at 10,000×g for 15 minutes at 4° C. and transferred to fresh tubes. Protein concentration was measured using Protein Assay Reagent (Bio-Rad, Hercules, CA). […] Separated proteins were transferred onto PVDF membranes using a Trans-Blot SD semi-dry transfer cell (BioRad) at 25 V for 90 minutes. Membranes were blocked in blocking buffer (Tris buffered saline with 0.25% Tween 20 (TBST) containing 1% BSA) for one hour at room temperature before incubation with primary antibodies (1 ng/mL) for 12 hours at 4° C. Membranes were then washed with wash buffer (TBST) in three ten-minute washes before treatment with IRDye 680RD conjugated goat anti-rabbit or IRDye 800 RD conjugated goat anti-mouse secondary antibodies (LI-COR Biosciences, Lincoln, NE) for three hours at room temperature.

FLAG-SPDEF (NM_012391) = target: T3, FLAG-SPDEF (NM_012391) (UniProt O95238 1-335); test: immunoblot of cell lysates (HEK-293 2 µg per lane) probed with 29E4; the protein is shown present in panels D and F
T3 construct: Expressed in HEK-293 cells and tested as cell lysate on an immunoblot; also called SAM pointed domain-containing ETS transcription factor; not shown: FLAG tag
T3 sequence (looked up): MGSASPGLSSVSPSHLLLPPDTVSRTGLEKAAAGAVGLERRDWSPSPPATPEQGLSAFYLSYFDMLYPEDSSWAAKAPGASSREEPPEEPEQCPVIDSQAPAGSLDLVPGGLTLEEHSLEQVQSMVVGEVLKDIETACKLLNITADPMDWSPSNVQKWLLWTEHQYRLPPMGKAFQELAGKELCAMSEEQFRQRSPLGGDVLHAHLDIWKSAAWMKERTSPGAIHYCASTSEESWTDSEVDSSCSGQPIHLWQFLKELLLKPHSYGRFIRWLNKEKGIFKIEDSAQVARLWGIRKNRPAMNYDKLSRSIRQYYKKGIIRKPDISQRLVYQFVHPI
Protocol: as §1, §2

T1 sequence (peptide, as listed by the source): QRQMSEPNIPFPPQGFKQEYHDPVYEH

Kd [1]: 0.479 nM
koff [1]: 0.000149 s⁻¹
kon [1]: 311000 M⁻¹ s⁻¹
binding result [2]: no binding
binding result (FLAG-SPDEF (NM_012391)): no binding
B1: ETV1 rabbit monoclonal antibody (29E4) (antibody, V domains shown)
VH: QELEESGGDLVKPGASLTLTCTASGFFFSAENHICWVRQAPGKGLEWIGCVYIGSYVGGSGDPYYASWAKGRFTISKTSSTTVTLQMSSLTAADTATYFCARDLGSLWGPGTLVTVSS
VL: DVVMTQTASSVSAAVGGTVTIACQSSQSVYDNNNLAWFQQKPGQPPKRLIYSASTLASGVSSRFKGSGYGTQFTLTISDVQCDDAATYYCVGAFSGYIFVFGGGTEVVVK
notes: constant regions are not; also called 29E4 mAb; ETV1 29E4 mAb

From patent US20260227403A1 (HENRY M JACKSON FOUNDATION FOR THE ADVANCEMENT OF MILITARY …, published 2026)
